Three substances from patent US20170173105A1, “AUTOASSEMBLING PEPTIDES FOR THE TREATMENT OF PULMONARY LEAKAGE” (3-D MATRIX, LTD., priority 2014, published 2017) can be followed below.

Common to all, as to type: physicochemical
Series [1] can be described thus: Gelation of peptide solutions on saline buffer treatment (time sweep). The settings on record: saline buffer (0.15 M of NaCl); IEIK13 1.5%, KLD12 1.5%, PuraMatrix 2.5%. The method, then:
The effect of salt ionic strength level surrounding peptide solution on the properties of peptide solutions was evaluated to identify the possibility of peptide gelation when the peptide solution is placed into the environment where salt ionic strength level is high. […] Without pH effect, the effect of saline treatment on gelation of peptide solutions were evaluated. […] This is because IEIK13 is much more sensitive to salt ionic strength levels. Fast gelation of IEIK13 at the salt ionic strength level similar to body fluid isotonic salt level may generally improve its function and gelation speed for various clinical applications. The results are shown in FIG. 19 for IEIK13, KLD12 and PuraMatrix® solutions. Time sweep tests were performed at 1 rad/sec and at 1 Pa with 20 mm plates and 500 μm gap distance. […]

Series [2] in a line: Gelation kinetics of pH adjusted peptides, time sweep with DMEM added. The protocol:
The effect of pH level on the properties of gelation kinetics was evaluated to identify optimized pH levels for the peptides as described herein. Fast gelation kinetics of PuraMatrix® and other peptides within body fluid may generally improve its function and response time for various clinical applications. The pH level may impart response time to begin gelation when treated with simulated body fluid including but not limited to DMEM. […] A fast response time of PuraMatrix® and other peptides within body fluid may generally improve its function and response time for various clinical applications.
Time sweep tests were performed at 1 rad/sec and at 1 Pa with 20 mm plates and 500 μm gap distance. During time sweep test of PuraMatrix® 2.5% solution, DMEM was added into the chamber surrounding the measuring plates to soak PuraMatrix® solution at 0 time point. The results are shown in FIG. 9A for PuraMatrix® 2.5% solution.
Time sweep tests were performed at 1 rad/sec and at 1 Pa with 20 mm plates and 500 μm gap distance. During time sweep test of IEIK13 1.5% solution, DMEM was added into the chamber surrounding the measuring plates to soak IEIK13 1.5% solution at 0 time point and continuously data was recorded. The results are shown in FIG. 9B for IEIK13 1.5% solution.

Series [3] can be described thus: pH and appearance of 2.5% peptide solutions after adding 0.1 N NaOH. As to conditions: for apparent stiffness on pH increase / color of solution on pH increase: pH increase up to approximately 3.5 or less with 0.1 N NaOH, 2.5% solutions. The protocol:
To adjust the pH level of the peptide solutions by way of example, 0.1 N NaOH was added to 2 mL of 2.5% peptide solutions and their pH and appearance were measured.

Series [4] in a line: Rheological properties of pH adjusted peptide solutions and hydrogels (stress/frequency sweep). As to conditions: for rheological property of solutions at various pH levels: PuraMatrix 2.5% solution, IEIK13 1.5% solution; for rheological property of solutions at various pH levels / rheological property of hydrogels after DMEM treatment at various pH: storage modulus at 1 rad/sec; for rheological properties of solutions after pH adjustment: at pH 3.4 (IEIK13 adjusted to 3.7), KLD12 1%, IEIK13 1%, PuraMatrix 1% and 2.5%. The method, then: Based on the visual observation of the effect of pH level on the properties of the peptide solutions, the effect on the rheological properties of the peptide solutions after adjusting their pH level to 3.4 (PuraMatrix® and KLD12) or 3.7 (IEIK13) was evaluated. If the pH levels of peptide solutions are higher than 3.5 (PuraMatrix® and KLD12) or 3.7 (IEIK13), the peptide solution began phase separation becoming cloudy. The rheological properties of PuraMatrix®, KLD12 and IEIK13 solutions were higher at pH 3.4. The results are shown in FIG. 2 for KLD12 1%, FIG. 3 for IEIK13 1%, and FIGS. 4-5 for PuraMatrix® 1% and 2.5%, respectively. Stress sweep tests were performed at 10 rad/s. Frequency sweep tests were performed at 1 Pa.
Based on the results of the effect on the rheological properties of the peptide solutions after adjusting their pH level to 3.4 (PuraMatrix® and KLD12) or 3.7 (IEIK13), the effect on the rheological properties of the peptide solutions at various pH levels was evaluated. […] The rheological properties of peptides were evaluated at various concentrations using a rheometer (DHR-1, TA Instruments) with 20 mm plates. The results are shown in FIG. 6A for PuraMatrix® 2.5% solution and FIG. 6B for IEIK13 1.5% solution, respectively. Frequency sweep tests were performed from 1 rad/sec to 10 rad/sec at 1 Pa and the storage modulus at 1 rad/sec was selected for data.
Based on the results of the effect on the rheological properties of the peptide solutions after adjusting their pH level, the effect on the rheological properties of the peptide hydrogels at various pH after DMEM treatment was evaluated and compared to the effect on the rheological properties of the peptide solutions at various pH before DMEM treatment. […] The results are shown in FIGS. 7A-7B for PuraMatrix® and FIGS. 8A-8B for IEIK (SEQ ID NO: 5), respectively. Frequency sweep tests were performed from 1 rad/sec to 10 rad/sec at 1 Pa and the storage modulus at 1 rad/sec was selected for data.

Setting [5] is: with pH adjustment, PuraMatrix 2.5%, IEIK13 1.5% solution.
Setting [6] is: 0.1 N NaOH 0 μL/mL added in 2.5% solution, conc. 2.5%.
The mark [7] stands for this setting: 0.1 N NaOH 50 μL/mL added in 2.5% solution, conc. 2.38%.
Where [8] appears, read: 0.1 N NaOH 100 μL/mL added in 2.5% solution, conc. 2.27%.
Where [9] appears, read: 0.1 N NaOH 150 μL/mL added in 2.5% solution, conc. 2.17%.
The mark [10] stands for this setting: 0.1 N NaOH 200 μL/mL added in 2.5% solution, conc. 2.08%.
Where [11] appears, read: 0.1 N NaOH 250 μL/mL added in 2.5% solution, conc. 2.0%.
[12] abbreviates: 0.1 N NaOH 275 μL/mL added in 2.5% solution, conc. 1.96%.
Where [13] appears, read: 0.1 N NaOH 300 μL/mL added in 2.5% solution, conc. 1.92%.
Where [14] appears, read: 0.1 N NaOH 350 μL/mL added in 2.5% solution, conc. 1.85%.
Setting [15] is: last line per peptide, NaOH volume and conc. not given.

“Arg-Ala-Asp-Ala-Arg-Ala-Asp-Ala-Arg-Ala-Asp-Ala-Arg-Ala-Asp-Ala [PuraMatrix ®]”: the “gelation after saline buffer treatment” value in series [1] is on record as “no or negligible gelation”. Besides, the “storage modulus response after DMEM addition” value in series [2] (setting [5]) was “immediate storage modulus increase”. For the same substance, the “initial time without storage modulus increase after DMEM addition” value in series [2] (without pH adjustment (pH 2.2), 2.5% solution) was determined as 13 s. Moreover, the Appearance result was “Clear, thick gel” in series [3] (setting [6]); “Clear, thick gel” in series [3] (setting [7]); “Clear, thick gel” in series [3] (setting [8]). The “Peptide solution pH” value in series [3] (setting [6]) came out at 2.2; in series [3] (setting [7]), 2.3; in series [3] (setting [8]), 2.4; in series [3] (setting [9]), 2.7; in series [3] (setting [10]) it was 2.9; in series [3] (setting [11]) it was 3.2. The “Peptide solution pH” value in series [3] (setting [12]) was found to be 3.4; in series [3] (setting [13]), 3.6; in series [3] (setting [14]) it was 4.5; in series [3] (setting [15]) it was 7.0. For the same substance, in series [3], the “apparent stiffness on pH increase” value is on record as “increased”. Besides, in series [3], the “color of solution on pH increase” value is reported as “did not change the clear color”. Besides, the “rheological property of solutions at various pH levels” value in series [4] is on record as “increases with pH adjustment up to 3.4”. Moreover, the “rheological property of hydrogels after DMEM treatment at various pH” value in series [4] is reported as “increases with pH adjustment up to 3.4”. In series [4], the “rheological properties of solutions after pH adjustment” value (“rheological properties of solutions” below) was “higher”.
For “Ile-Glu-Ile-Lys-Ile-Glu-Ile-Lys-Ile-Glu-Ile-Lys-Ile [IEIK13]”, the “gelation after saline buffer treatment” value in series [1] is “fast gelation”. Moreover, the “storage modulus response after DMEM addition” value is “immediate storage modulus increase” in series [2] (setting [5]) and “immediate storage modulus increase” in series [2] (without pH adjustment, 1.5% solution). Besides, the Appearance result was “Clear, thick gel” in series [3] (setting [6]); “Clear, thick gel” in series [3] (setting [7]); “Clear, thick gel” in series [3] (setting [8]); “Cloudy, brittle gel” in series [3] (setting [14]). Besides, the “Peptide solution pH” value stood at 1.8 in series [3] (setting [6]); 2.1 in series [3] (setting [7]); 2.2 in series [3] (setting [8]); 2.7 in series [3] (setting [9]); 3.0 in series [3] (setting [10]); 3.3 in series [3] (setting [11]). For the same substance, the “Peptide solution pH” value in series [3] (setting [12]) was 3.7; in series [3] (setting [13]), 4.0; in series [3] (setting [14]), 4.5; in series [3] (0.1 N NaOH 400 μL/mL added in 2.5% solution, conc. 1.79%), 5.4; in series [3] (setting [15]) it was 7.0. For the same substance, the “apparent stiffness on pH increase” value in series [3] was “increased”. The “color of solution on pH increase” value in series [3] is listed as “did not change the clear color”. For the same substance, the “pH level at which the peptide solution began phase separation becoming cloudy” value in series [4] is given as over 3.7. Further, the “rheological property of solutions at various pH levels” value in series [4] is reported as “increases with pH adjustment up to 3.4”. For the same substance, in series [4], the “rheological property of hydrogels after DMEM treatment at various pH” value is “increases with pH adjustment up to 3.4”. Further, the “rheological properties of solutions” value in series [4] is listed as “higher”.
With “Lys-Leu-Asp-Leu-Lys-Leu-Asp-Leu-Lys-Leu-Asp-Leu (Ac-KLDLKLDLKLDL-NH2) [KLD12]”, the “gelation after saline buffer treatment” value in series [1] was “no or negligible gelation”. For the same substance, the Appearance result is recorded as “Clear, thick gel” in series [3] (setting [6]); “Clear, thick gel” in series [3] (setting [7]); “Clear, thick gel” in series [3] (setting [8]); “Cloudy, brittle gel” in series [3] (setting [13]). For the same substance, the “Peptide solution pH” value in series [3] (setting [6]) turned out to be 2.1; in series [3] (setting [7]), 2.4; in series [3] (setting [8]), 2.6; in series [3] (setting [9]), 2.9; in series [3] (setting [10]), 3.3; in series [3] (0.1 N NaOH 225 μL/mL added in 2.5% solution, conc. 2.04%), 3.6. For the same substance, the “Peptide solution pH” value in series [3] (setting [11]) is 4.0; in series [3] (setting [13]), 4.7; in series [3] (setting [14]), 5.2; in series [3] (setting [15]) it was 7.0. Moreover, the “apparent stiffness on pH increase” value in series [3] is listed as “increased”. Moreover, in series [3], the “color of solution on pH increase” value was “did not change the clear color”. The “rheological properties of solutions” value in series [4] is reported as “higher”.
